Publication PMC4760375, “A dual phosphorylation switch controls 14-3-3-dependent cell surface expression of TASK-1” (Journal of Cell Science, 2016)
Blank lines part the entries; values can stand above or below the molecule they belong to. Non-standard residues stand in square brackets, D forms with d. No end group written: not given here. pS = N[C@@H](COP(=O)(O)O)C(=O)O

B1: 14-3-3η (natural protein)
chain: MGDREQLLQRARLAEQAERYDDMASAMKAVTELNEPLSNEDRNLLSVAYKNVVGARRSSWRVISSIEQKTMADGNEKKLEKVKAYREKIEKELETVCNDVLSLLDKFLIKNCNDFQYESKVFYLKMKGDYYRYLAEVASGEKKNSVVEASEAAYKEAFEISKEQMQPTHPIRLGLALNFSVFYYEIQNAPEQACLLAKQAFDDAIAELDTLNEDSYKDSTLIMQLLRDNLTLWTSDQQDEEAGEGN

Experiments:
[1] = target: T1, 14-3-3σ (human, UniProt P31947 1-248); assay: fluorescence polarization titration; details: reference: unphosphorylated peptide; sites S393
T1 chain: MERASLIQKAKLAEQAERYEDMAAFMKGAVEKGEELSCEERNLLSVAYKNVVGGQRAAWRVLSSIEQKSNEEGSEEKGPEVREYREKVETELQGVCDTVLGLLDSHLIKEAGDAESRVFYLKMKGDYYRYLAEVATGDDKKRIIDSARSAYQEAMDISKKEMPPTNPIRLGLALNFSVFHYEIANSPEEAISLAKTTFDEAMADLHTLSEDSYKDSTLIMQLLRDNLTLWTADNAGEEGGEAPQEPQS

[2] = target: 14-3-3γ (UniProt P61981); assay: fluorescence polarization titration; details: reference: unphosphorylated peptide
[3] = target: 14-3-3η (UniProt Q04917); assay: fluorescence polarization titration; details: reference: unphosphorylated peptide; sites S393
[4] = target: T2, 14-3-3ε (human, UniProt P62258 1-255); assay: fluorescence polarization titration; details: reference: unphosphorylated peptide
T2 chain: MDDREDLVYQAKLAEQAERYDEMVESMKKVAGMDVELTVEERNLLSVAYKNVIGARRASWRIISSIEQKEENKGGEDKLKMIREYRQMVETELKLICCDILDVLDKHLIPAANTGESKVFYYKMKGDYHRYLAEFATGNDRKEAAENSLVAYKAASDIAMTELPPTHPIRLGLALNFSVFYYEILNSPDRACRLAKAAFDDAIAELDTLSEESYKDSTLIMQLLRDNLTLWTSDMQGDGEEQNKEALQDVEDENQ

[5] = target: 14-3-3ζ (UniProt P63104); assay: fluorescence polarization titration; details: reference: unphosphorylated peptide
[6] = target: 14-3-3τ (UniProt P27348); assay: fluorescence polarization titration; details: reference: unphosphorylated peptide; sites S373
[7] = target: T3, 14-3-3β (human, UniProt P31946 1-246); assay: fluorescence polarization titration; details: reference: unphosphorylated peptide; sites S373
T3 chain: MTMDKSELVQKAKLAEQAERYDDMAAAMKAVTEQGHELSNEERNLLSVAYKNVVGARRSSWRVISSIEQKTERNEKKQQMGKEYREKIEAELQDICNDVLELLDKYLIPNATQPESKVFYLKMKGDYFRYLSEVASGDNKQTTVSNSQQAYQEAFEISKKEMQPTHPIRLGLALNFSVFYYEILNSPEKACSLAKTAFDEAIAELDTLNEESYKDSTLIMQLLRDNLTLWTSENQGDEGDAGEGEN

[8] = target: TASK-3 pS373 C-terminal fluorescent peptide (last 15 amino acids) (human) (UniProt Q9NPC2); assay: fluorescence polarisation; 10 nM fluorescein-labelled peptide titrated with 14-3-3 protein (1 nM to 120 µM in the results, 100 µM to 1 nM in the methods); 20 mM MOPS, 150 mM NaCl, 0.005% (v/v) CHAPS pH 7.0; room temperature; monophasic fit
[9] = target: TASK-1 pS392 C-terminal fluorescent peptide (human) (UniProt O14649); assay: as above
[10] = target: GST-tagged TASK-3 C-terminal 15 residues fusion protein, phosphorylated with PKA catalytic subunit (human) (UniProt Q9NPC2); assay: SPR; GST fusion protein captured by an anti-GST antibody on an HC1000m chip, phosphorylated on the chip with PKA catalytic subunit; 14-3-3 proteins as analyte; 20°C; 150 mM NaCl, 20 mM HEPES, 0.005% (v/v) Tween 20, pH 7.5; equilibrium binding isotherms
[11] = target: doubly phosphorylated TASK-1 C-terminal fluorescent peptide (pS392 and pS393) (human) (UniProt O14649); assay: fluorescence polarisation; 10 nM fluorescein-labelled peptide titrated with 14-3-3 protein (1 nM to 120 µM in the results, 100 µM to 1 nM in the methods); 20 mM MOPS, 150 mM NaCl, 0.005% (v/v) CHAPS pH 7.0; room temperature; monophasic fit
[12] = target: T4, GST-tagged TASK-3 C-terminal 15 residues fusion protein, phosphorylated with PKA catalytic subunit (human, UniProt Q9NPC2 360-374); assay: SPR
T4 chain: {GST}-SFTDHQRLMKRRK[pS]V

[13] = target: T5, TASK-3 pS373 ΔV374 C-terminal fluorescent peptide (human, UniProt Q9NPC2 360-374, ΔV374, also: fluorescein label, position not given here); assay: fluorescence polarisation; 10 nM fluorescein-labelled peptide titrated with 14-3-3 protein (1 nM to 120 µM in the results, 100 µM to 1 nM in the methods); 20 mM MOPS, 150 mM NaCl, 0.005% (v/v) CHAPS pH 7.0; room temperature; monophasic fit; details: both partners purified
T5 construct: TASK-3 (KCNK9), human, C-terminal peptide with phosphorylated S373 but lacking the C-terminal valine V374; ends at pS373; source: synthetic peptide, bought: Peps4Life Sciences
T5 peptide (looked up): SFTDHQRLMKRRK[pS]

[14] = target: TASK-1 pS393 C-terminal fluorescent peptide (last 15 amino acids) (human) (UniProt O14649); assay: as above
[15] = target: T6, 14-3-3ζ (human, UniProt P63104 1-245); assay: FP
T6 chain: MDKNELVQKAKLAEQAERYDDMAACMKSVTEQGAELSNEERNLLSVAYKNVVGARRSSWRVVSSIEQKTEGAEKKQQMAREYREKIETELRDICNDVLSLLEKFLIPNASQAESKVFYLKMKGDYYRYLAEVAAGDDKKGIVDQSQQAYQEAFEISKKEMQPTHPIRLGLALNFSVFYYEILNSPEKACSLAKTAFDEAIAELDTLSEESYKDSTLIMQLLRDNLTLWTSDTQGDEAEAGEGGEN

[16] = target: T7, 14-3-3γ (human, UniProt P61981 1-247); assay: FP
T7 chain: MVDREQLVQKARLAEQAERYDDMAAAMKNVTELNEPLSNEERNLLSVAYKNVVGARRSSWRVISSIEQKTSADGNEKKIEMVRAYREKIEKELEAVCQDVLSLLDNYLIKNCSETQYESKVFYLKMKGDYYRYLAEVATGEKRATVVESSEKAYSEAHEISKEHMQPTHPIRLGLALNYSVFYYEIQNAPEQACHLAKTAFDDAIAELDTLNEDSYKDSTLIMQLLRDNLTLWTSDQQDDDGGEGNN

[17] = target: T8, 14-3-3τ (human, UniProt P27348 1-245); assay: FP
T8 chain: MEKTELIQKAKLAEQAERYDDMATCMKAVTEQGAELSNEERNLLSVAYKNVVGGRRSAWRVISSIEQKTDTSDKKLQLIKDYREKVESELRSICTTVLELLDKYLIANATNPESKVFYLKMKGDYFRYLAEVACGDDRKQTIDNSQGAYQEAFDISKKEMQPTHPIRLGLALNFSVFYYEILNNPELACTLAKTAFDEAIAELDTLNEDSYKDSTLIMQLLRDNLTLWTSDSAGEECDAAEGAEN

[18] = target: T2, 14-3-3ε; assay: FP
[19] = target: T3, 14-3-3β; assay: FP
[20] = target: T1, 14-3-3σ; assay: FP
[21] = target: B1; assay: FP

binding against the reference [1]: gained
binding against the reference ([2]; sites S393): gained
binding against the reference [3]: gained
binding against the reference ([4]; sites S393): gained
binding against the reference ([5]; sites S393): gained
Molecule: TASK-1 last 15 amino acids of the C-terminus (from UniProt O14649) pS393 peptide

binding against the reference ([2]; sites S373): gained
binding against the reference [6]: gained
binding against the reference ([4]; sites S373): gained
binding against the reference ([5]; sites S373): gained
binding against the reference [7]: gained
Molecule: TASK-3 last 15 amino acids of the C-terminus (from UniProt Q9NPC2) pS373 peptide

Kd [8]: 3.6 µM
Kd [9]: 100 µM
Kd [10]: 0.742 µM
Molecule: 14-3-3σ (from UniProt P31947 1-248) (natural protein)

Kd [11]: 200 µM
Kd [9]: 100 µM
Kd [10]: 0.045 µM
Molecule: 14-3-3γ (from UniProt P61981 1-247) (natural protein)

Molecule: B1
Kd [8]: 0.11 µM
Kd [9]: 100 µM
Kd [12]: 0.115 µM

Kd [9]: 100 µM
Kd [12]: 0.15 µM
fold reduction of affinity against the TASK-3 pS373 peptide with V374 [13]: 23 fold
B2: 14-3-3ε (natural protein, human, UniProt P62258 1-255, looked up)
chain: MDDREDLVYQAKLAEQAERYDEMVESMKKVAGMDVELTVEERNLLSVAYKNVIGARRASWRIISSIEQKEENKGGEDKLKMIREYRQMVETELKLICCDILDVLDKHLIPAANTGESKVFYYKMKGDYHRYLAEFATGNDRKEAAENSLVAYKAASDIAMTELPPTHPIRLGLALNFSVFYYEILNSPDRACRLAKAAFDDAIAELDTLSEESYKDSTLIMQLLRDNLTLWTSDMQGDGEEQNKEALQDVEDENQ
notes: 14-3-3 protein epsilon, human; open reading frame inserted into pMAL2Cx; also called 14-3-3 epsilon

Kd [14]: 7.5 µM
Kd [9]: 100 µM
Kd [12]: 0.181 µM
fold reduction of affinity against the TASK-3 pS373 peptide with V374 [13]: 3 fold
B3: 14-3-3β (natural protein, human, UniProt P31946 1-246, looked up)
chain: MTMDKSELVQKAKLAEQAERYDDMAAAMKAVTEQGHELSNEERNLLSVAYKNVVGARRSSWRVISSIEQKTERNEKKQQMGKEYREKIEAELQDICNDVLELLDKYLIPNATQPESKVFYLKMKGDYFRYLSEVASGDNKQTTVSNSQQAYQEAFEISKKEMQPTHPIRLGLALNFSVFYYEILNSPEKACSLAKTAFDEAIAELDTLNEESYKDSTLIMQLLRDNLTLWTSENQGDEGDAGEGEN
notes: 14-3-3 protein beta, human; open reading frame inserted into pMAL2Cx; also called 14-3-3 beta

Kd [15]: 1 µM
Kd [16]: 0.15 µM
Kd [17]: 0.22 µM
Kd [18]: 0.8 µM
Kd [19]: 0.37 µM
Molecule: SFTDHQRLMKRRK[pS]V (also: fluorescein label, position not given here) [TASK-3 pS373 C-terminal fluorescent peptide (last 15 amino acids)]

Kd [20]: 36 µM
Kd [15]: 23 µM
Kd [16]: 9.8 µM
Kd [18]: 29 µM
Kd [21]: 9.2 µM
Molecule: SLSTFRGLMKRRS[pS]V (also: fluorescein label, position not given here) [TASK-1 pS393 C-terminal fluorescent peptide (last 15 amino acids)]
